Laboratory results as given in paper PMC3222871.

Target: T1, human POT1 (human, UniProt Q9NUX5 1-634)
T1 sequence: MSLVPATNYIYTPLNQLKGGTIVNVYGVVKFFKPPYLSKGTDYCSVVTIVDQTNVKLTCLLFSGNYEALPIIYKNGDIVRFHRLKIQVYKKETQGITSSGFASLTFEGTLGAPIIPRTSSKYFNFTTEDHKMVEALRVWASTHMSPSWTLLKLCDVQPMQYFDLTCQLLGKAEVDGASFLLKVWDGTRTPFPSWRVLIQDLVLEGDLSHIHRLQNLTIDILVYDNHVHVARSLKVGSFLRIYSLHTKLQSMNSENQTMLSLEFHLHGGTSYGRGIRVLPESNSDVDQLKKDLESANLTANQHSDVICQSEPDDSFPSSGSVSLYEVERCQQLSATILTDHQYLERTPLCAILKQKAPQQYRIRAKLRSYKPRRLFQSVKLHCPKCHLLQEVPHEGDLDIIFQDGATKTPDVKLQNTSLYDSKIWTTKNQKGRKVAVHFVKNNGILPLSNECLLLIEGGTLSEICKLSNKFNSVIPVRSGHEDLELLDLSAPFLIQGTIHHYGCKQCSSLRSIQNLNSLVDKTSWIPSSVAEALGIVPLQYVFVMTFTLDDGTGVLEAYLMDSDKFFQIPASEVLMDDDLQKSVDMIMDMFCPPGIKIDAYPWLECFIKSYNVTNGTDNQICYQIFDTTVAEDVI
Assay: EMSA

B1: dT34 (ssDNA)
DNA: TTTTTTTTTTTTTTTTTTTTTTTTTTTTTTTTTT
  binding result: no binding
